How the values were obtained:
primary keratinocytes [1] = assay: Keratinocytes migration (wound scratch) assay in vitro; type: cell-based, murine
Protocol: (§1) Primary keratinocytes were isolated from newborn skin as described in reference 18. Keratinocytes were cultured in Eagle's Minimal Essential Medium (EMEM) containing 8% Chelex (Chelex-100, BioRad) treated fetal bovine serum. To maintain a proliferative basal cell phenotype, the final Ca^2+ concentration was adjusted to 0.05 mM. Experiments were performed five to seven days after plating.
Primary mouse keratinocytes were untreated or treated with, PPARγ antagonist GW9662 (μM) or PPARγ agonist troglitazone (μM). Wound Scratch Assay was performed 24 hours following treatment, and representative fields were photographed immediately after the wounding (Day 0) and 48 hours later (Day 2). The average of wound closure represented as percentage in comparison to the initial width of the wound scratch (% of wound closure).
The effect of inhibiting or enhancing the activity of peroxisome proliferators-activated receptor gamma (PPARγ) on keratinocytes migration was evaluated utilizing the in vitro migration assay. Thus, primary keratinocytes were isolated and plated on 5 ml non-coated dishes until confluence in low Ca^2+ medium, and an artificial crossover scratch was formed in each dish with a 200 μm tip. Cells were either non-treated (control) or treated daily with PPARγ modulators.
In order to test the effect of different adipokines on keratinocyte migration to close the wound gap, an in vitro scratch assay was used. Thus, primary keratinocytes were isolated and plated on 5 ml non-coated dishes until confluence in low Ca^2+ medium, and an artificial crossover scratch was formed in each dish with a 200 μm tip. Cells were either non-treated (control) or treated daily with insulin (0.1 unit/ml), hIL-4 (2 ng/ml), hIL-6 (0.2 ng/ml), leptin (4 μg/ml) or apelin (0.02 μg/ml or 0.2 μg/ml).
Primary keratinocytes/fibroblasts were isolated and plated on 5 ml non-coated dishes until confluence in low Ca^2+ medium, and an artificial cross-over scratch was formed in each dish with a 200 μm tip. […]

[2] = test system: Full thickness wounds on the back of C57BL mice; assay: Wound healing assay, full thickness incision wounds in mice; type: in vivo
Protocol: […] […] Wound biopsies were sampled, processed and analyzed morphologically and/or histochemically and/or immunohistochemically for various wound healing parameters, i.e., wound contraction, adipocytes migration and differentiation, epidermal migration, and epidermal closure.
The wound area was measured and compared to untreated control wounds; and wound contraction was calculated as the percent reduction of the wound area.
Wound biopsies were fixed in 4% paraformaldehyde then dehydrated in increasing concentrations of ethanol (50-100%). The dehydrated preparations were immersed first in xylene, then paraffin and xylene 1:1 solution, then in pure melted paraffin (60° C.). The paraffin blocks were then sectioned by a microtome and the sections were mounted on Super Frost^+™ slides.
Paraffin embedded wound-section slides were incubated at 60° C. for 60 minutes and were de-parafinated by washing the slides twice with toluene (100%) for 10 minutes, then rehydrated in decreasing concentration of ethanol (100-50%) for 5 minutes each. The slides were stained with hematoxylin (ready to use solution) for 10 minutes, rinsed with water, stained with eosin (0.5% in DDW) for 5 minutes, and then washed with 70% ethanol by 2 quick immersions. Thereafter, the slides were dehydrated by washing once with 95% ethanol for 2 minutes, twice with 100% ethanol for 5 minutes, and twice with xylene (100%) for 10 minutes, then mounted with entellan (MERCK Darmstadt Germany).
Paraffin embedded wound-section slides were de-parafinated as described for H&E staining above and incubated in blocking solution (5% BSA and 0.5% Tween 20™ in PBS) for 1 hour. […]
The effect of inhibiting or enhancing the activity of PPARγ using PPARγ antogonist and agonist, respectively, on wound healing was also evaluated in vivo. […]
The effect of adipsin (complementing Factor D, which is secreted from adipocytes) on wound healing was evaluated in vivo. […] The mice were sacrificed 6 days after wounding and the wounds were then analyzed. […]

primary keratinocytes [3] = assay: Differentiation assay for Keratin 1 (western blot); type: cell-based, murine; settings: visfatin 0.01 or 0.1 μg/ml, 24 hrs; vs non treated and insulin treated cells
Protocol: as §1
Primary keratinocytes were isolated, plated on 100 mm tissue dishes and maintained for 5 days in medium with low Ca^2+ (0.05 mM) until 80% confluence. Then, cells were either non-treated (control) or treated with insulin (0.1 unit/ml, 1 μM) or visfatin (0.01 μg/ml or 0.1 μg/ml). 24 hrs post treatment cells were lysed and analyzed for K1 (Keartin 1) expression by western blot analysis.

primary keratinocytes [4] = assay: Differentiation assay for filaggrin (western blot); type: cell-based, murine; settings: visfatin 0.01 and 0.1 μg/ml, 24 hrs
Protocol: as §1
Primary keratinocytes were isolated, plated on 100 mm tissue dishes and maintained for 5 days in medium with low Ca^2+ (0.05 mM) until reaching 80% confluence. Then, cells were either non-treated (control) or treated with visfatin (0.01 μg/ml or 0.1 μg/ml). Terminal differentiation was induced by adding Ca^2+ to the medium 6 hrs post treatment. 24 hrs post treatment cells were lysed and analyzed for filaggrin expression by western blot analysis.

primary keratinocytes [5] = assay: Western blot analysis for PCNA expression (proliferation marker); type: cell-based, murine; settings: visfatin 0.01 μg/ml, 24 hrs post treatment
Protocol: as §1
Primary keratinocytes were isolated, plated on 100 mm tissue dishes and maintained for 5 days in medium with low Ca^+ (0.05 mM) until 80% confluence. Then, cells were either non-treated (control) or treated with insulin (0.1 unit/ml, 1 μM) or visfatin (0.01 μg/ml or 0.1 μg/ml). 24 hrs post treatment cells were lyzed and analyzed for PCNA expression by western blot analysis.

primary keratinocytes [6] = assay: Thymidine incorporation assay; type: cell-based, murine
Protocol: as §1
Primary keratinocytes were isolated, plated on 6 well tissue dishes and maintained for 5 days in medium with low Ca^2+ (0.05 mM) until 80% confluence. Then, cells were either non-treated (control) or treated with visfatin (0.1 μg/ml or 0.01 μg/ml) for 24 hrs. 6 hrs post treatment Ca^2+ mM was added to the medium, and the next day, cells were pulsed with [^3H]thymidine (1 uCi/ml) for 1 hour. After incubation, cells were washed three times with PBS and 5% trichloroacetic acid (TCA) was added into each well for 1 hour. The solution was then removed and cells were stabilized in 1M NaOH. The labeled thymidine incorporated into the cells was counted in a ^3H-window of a Tricarb liquid scintillation counter.

primary skin fibroblasts = assay: Fibroblasts scratch migration assay in vitro; type: cell-based; settings: 24 hrs; for fibroblasts migration to close the wound gap vs non-treated and insulin: hIL-8 5 ng/ml, hIL-1β 0.2 ng/ml, hIL-4 2 ng/ml, apelin 0.2 μg/ml, adiponectin 1 μg/ml
Protocol: Primary skin fibroblasts were isolated and plated on 5 ml non-coated dishes until confluence in low Ca^2+ medium, and an artificial crossover scratch was formed in each dish with a 200 μm tip. Cells were either non-treated (control) or treated with insulin (0.1 unit/ml), hIL-8 (5 ng/ml), hIL-1β (0.2 ng/ml), hIL-4 (2 ng/ml), apelin (0.2 μg/ml) or adiponectin (1 μg/ml); and collected after 24 hrs.
Primary keratinocytes/fibroblasts were isolated and plated on 5 ml non-coated dishes until confluence in low Ca^2+ medium, and an artificial cross-over scratch was formed in each dish with a 200 μm tip. Then, cells were either non-treated or treated with visfatin (0.1 μg/ml or 0.0.1 μg/ml) or insulin (0.1 unit/ml) for up to 48 hrs.

[7] = visfatin 0.01 μg/ml daily for 7 days

Row | Molecule | migration of keratinocytes relative to controls (primary keratinocytes [1]; visfatin 0.1 μg/ml or 0.01 μg/ml, up to 48 hrs) | migration of keratinocytes (primary keratinocytes [1]; visfatin 0.1 μg/ml, 48 hrs) | adipocytes at the wound site [2, 7] | inflammation in the wound [2, 7] | keratinocyte differentiation (Keratin 1 expression) (primary keratinocytes [3]) | filaggrin levels (terminal differentiation) (primary keratinocytes [4]) | PCNA expression levels in keratinocytes (primary keratinocytes [5]) | proliferation rate under conditions promoting cell differentiation (primary keratinocytes [6]; Ca2+ 0.12 mM addition to the medium, visfatin 0.1 or 0.01 μg/ml) | thymidine incorporation (proliferation) (primary keratinocytes [6]; visfatin 0.01 μg/ml vs 0.1 μg/ml and controls, 24 hrs) | fibroblast migration and proliferation (primary skin fibroblasts; visfatin 0.01 μg/ml, insulin 0.1 unit/ml as comparison) | healing parameters (epidermal closure, dermal contraction, matrix remodeling) ([2]; adiponectin 1 μg/ml daily for 7 days, 20 mm incision, H&E and Masson Trichrome) | fibroblasts migration to close the wound gap vs non-treated and insulin (primary skin fibroblasts) | keratinocyte migration in scratch assay vs control and insulin (primary keratinocytes [1]; treated daily, 24 and 48 hrs, hIL-4 2 ng/ml, apelin 0.2 μg/ml)
1 | visfatin (protein, UniProt P43490 1-491, looked up, insulin-mimetic hormone secreted from visceral adipose tissue) Nicotinamide …: MNPAAEAEFNILLATDSYKVTHYKQYPPNTSKVYSYFECREKKTENSKLRKVKYEETVFYGLQYILNKYLKGKVVTKEKIQEAKDVYKEHFQDDVFNEKGWNYILEKYDGHLPIEIKAVPEGFVIPRGNVLFTVENTDPECYWLTNWIETILVQSWYPITVATNSREQKKILAKYLLETSGNLDGLEYKLHDFGYRGVSSQETAGIGASAHLVNFKGTDTVAGLALIKKYYGTKDPVPGYSVPAAEHSTITAWGKDHEKDAFEHIVTQFSSVPVSVVSDSYDIYNACEKIWGEDLRHLIVSRSTQAPLIIRPDSGNPLDTVLKVLEILGKKFPVTENSKGYKLLPPYLRVIQGDGVDINTLQEIVEGMKQKMWSIENIAFGSGGGLLQKLTRDLLNCSFKCSYVVTNGLGINVFKDPVADPNKRSKKGRLSLHRTPAGNFVTLEEGKGDLEEYGQDLLHTVFKNGKVTKSYSFDEIRKNAQLNIELEAAHH | does not halt or interfere with migration of keratinocytes | induced migration in keratinocytes though not significantly | attracts adipocytes to the wound site | reduces inflammation | promotes keratinocyte differentiation primarily terminal differentiation | marked elevation in filaggrin levels | significantly decreased | inhibited even further | lower thymidine incorporation than the higher dose (0.1 μg/ml) and controls | promotes fibroblast migration and proliferation to the extent of insulin treatment | – | – | –
2 | adiponectin (protein, UniProt Q15848 19-244, looked up, adipokine) Adiponectin: ETTTQGPGVLLPLPKGACTGWMAGIPGHPGHNGAPGRDGRDGTPGEKGEKGDPGLIGPKGDIGETGVPGAEGPRGFPGIQGRKGEPGEGAYVYRSAFSVGLETYVTIPNMPIRFTKIFYNQQNHYDGSTGKFHCNIPGLYYFAYHITVYMKDVKVSLFKKDKAMLFTYDQYQENNVDQASGSVLLHLEVGDQVWLQVYGEGERNGLYADNDNDSTFTGFLLYHDTN | – | – | – | – | – | – | – | – | – | – | better healing parameters | promoted fibroblasts migration to completely close the wound gap | –
3 | IL-4: adipokine hIL-4 (protein, UniProt P05112 25-153, looked up) Interleukin-4: HKCDITLQEIIKTLNSLTEQKTLCTELTVTDIFAASKNTTEKETFCRAATVLRQFYSHHEKDTRCLGATAQQFHRHKQLIRFLKRLDRNLWGLAGLNSCPVKEANQSTLENFLERLKTIMREKYSKCSS | – | – | – | – | – | – | – | – | – | – | – | did not induce any additional effect compared to controls | keratinocyte migration was highly significant
